Experimental data reported in paper PMC7295969.

Biological target: Orfelia fultoni luciferase (Orfelia fultoni (endogenous in larvae))
Assay: native gel or EMSA; 6% Native-PAGE of the luciferase fraction from anion exchange, no SDS or mercaptoethanol, 25 mM Tris/192 mM glycine, ice-cooled; band shown by bioluminescence with hot extract; the luminescent ~220 kDa band was eluted and re-run on denaturing SDS-PAGE (single ~70 kDa band)

Orfelia fultoni luciferase (enzyme) gave a stoichiometry N of 3.
